# From PMC8864165 (2022)
# Square brackets hold non-standard residues; d marks the D form. Ends that are not written are not given here. Ac6c = NC1(C(=O)O)CCCCC1
# Columns and labels:
# E. coli DnaK = E. coli DnaK (Escherichia coli, UniProt P0A6Y8 1-638); experiment: FP
# S. aureus DnaK = S. aureus DnaK (Staphylococcus aureus, UniProt P99110 1-610); experiment: FP
Binder,Ki (E. coli DnaK),Ki (S. aureus DnaK)
[Ac6c]RPFFPRPYLPLPRPPRPVR-NH2 (N-terminus assumed; SMILES CC(C)C[C@H](NC(=O)[C@H](Cc1ccc(O)cc1)NC(=O)[C@@H]1CCCN1C(=O)[C@H](CCCNC(=N)N)NC(=O)[C@@H]1CCCN1C(=O)[C@H](Cc1ccccc1)NC(=O)[C@H](Cc1ccccc1)NC(=O)[C@@H]1CCCN1C(=O)[C@H](CCCNC(=N)N)NC(=O)C1(N)CCCCC1)C(=O)N1CCC[C@H]1C(=O)N[C@@H](CC(C)C)C(=O)N1CCC[C@H]1C(=O)N[C@@H](CCCNC(=N)N)C(=O)N1CCC[C@H]1C(=O)N1CCC[C@H]1C(=O)N[C@@H](CCCNC(=N)N)C(=O)N1CCC[C@H]1C(=O)N[C@H](C(=O)N[C@@H](CCCNC(=N)N)C(N)=O)C(C)C) [peptide 102],310 nM,4.2 µM
[Ac6c]RPKKPRPYLPRPRPPRPVR-NH2 (N-terminus assumed; SMILES CC(C)C[C@H](NC(=O)[C@H](Cc1ccc(O)cc1)NC(=O)[C@@H]1CCCN1C(=O)[C@H](CCCNC(=N)N)NC(=O)[C@@H]1CCCN1C(=O)[C@H](CCCCN)NC(=O)[C@H](CCCCN)NC(=O)[C@@H]1CCCN1C(=O)[C@H](CCCNC(=N)N)NC(=O)C1(N)CCCCC1)C(=O)N1CCC[C@H]1C(=O)N[C@@H](CCCNC(=N)N)C(=O)N1CCC[C@H]1C(=O)N[C@@H](CCCNC(=N)N)C(=O)N1CCC[C@H]1C(=O)N1CCC[C@H]1C(=O)N[C@@H](CCCNC(=N)N)C(=O)N1CCC[C@H]1C(=O)N[C@H](C(=O)N[C@@H](CCCNC(=N)N)C(N)=O)C(C)C) [peptide #2],600 nM,–
[Ac6c]RPDKPRPYLPRPRPPRPVR-NH2 (N-terminus assumed; SMILES CC(C)C[C@H](NC(=O)[C@H](Cc1ccc(O)cc1)NC(=O)[C@@H]1CCCN1C(=O)[C@H](CCCNC(=N)N)NC(=O)[C@@H]1CCCN1C(=O)[C@H](CCCCN)NC(=O)[C@H](CC(=O)O)NC(=O)[C@@H]1CCCN1C(=O)[C@H](CCCNC(=N)N)NC(=O)C1(N)CCCCC1)C(=O)N1CCC[C@H]1C(=O)N[C@@H](CCCNC(=N)N)C(=O)N1CCC[C@H]1C(=O)N[C@@H](CCCNC(=N)N)C(=O)N1CCC[C@H]1C(=O)N1CCC[C@H]1C(=O)N[C@@H](CCCNC(=N)N)C(=O)N1CCC[C@H]1C(=O)N[C@H](C(=O)N[C@@H](CCCNC(=N)N)C(N)=O)C(C)C) [ARV-1502],400 nM,13.7 µM
